Test results taken from the supplement of paper PMC7877785.
± gives the uncertainty stated by the source.

Assay: self-splicing fitness, log relative to wild type (ln ratio); higher = more splicing; Tetrahymena group I intron in knt gene, E. coli kanamycin selection, DiMSum; sequences stand for … in CUCUCU…GGAGGGAAAAGUUAUCAGGCAUGCACCUGGUAGCUAGUCUUUAAACCAAUAGAUUGCAUCGGUUUAAAAGGCAAGACCGUCAAAUUGCGGGAAAGGGGUCAACAGCCGUUCAGUACCAAGUCUCAGGGGAAACUUUGAGAUGGCCUUGCAAAGGGUAUGGUAAUAAGCUGACGGACAUGGUCCUAACCACGCAGCCAAGUCCUAAGUCAACAGAUCUUCUGUUGAUAUGGAUGCAGUUCACAGACUAAAUGUCGGUCGGGGAAGAUGUAUUCUUCUCAUAAGAUAUAGUCGGACCUCUCCUUAAUGGGAGCUAGCGGAUGAAGUGAUGCAACACUGGAGCCGCUGGGAACUAAUUUGUAUGCGAAAGUAUAUUGAUUAGUUUUGGAGUACUCGUGGUCG
Summary of the method: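 Library with all eight P1ex-region intron nucleotides randomised, intron inside the knt kanamycin-resistance gene on pET-22b(+), in E. coli BL21(DE3). Cells grew overnight at 37°C or 30°C on LB agar with or without 25 μg/mL kanamycin (plus 100 μg/mL carbenicillin, 50 μM IPTG, 0.2% rhamnose), in six replicate transformations. Pooled colonies were amplicon-sequenced on Illumina HiSeq 2500. DiMSum fitness is the error-weighted combination of wild-type-normalised replicate fold changes, kanamycin versus none.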

Sequence | self-splicing fitness (ln) (30 °C) | self-splicing fitness (ln) (37 °C)
CCCCAGCAAUAUUACGGACC | -4.08 ± 0.35 | -2.64 ± 0.26
GUGGAGCAAUAUUACGGGCC |  | -0.665 ± 0.48
AAGAAGCAAUAUUACGUCCG | -0.7 ± 0.073 | -0.283 ± 0.099
UGAAAGCAAUAUUACGCUCC | -1.4 ± 0.12 | -0.227 ± 0.14
AACAAGCAAUAUUACGGACG | -1.3 ± 0.061 | -0.887 ± 0.086
UCCGAGCAAUAUUACGGGGG | -4.27 ± 0.33 | -2.47 ± 0.22
CCACAGCAAUAUUACGUUGU | -2.37 ± 0.076 | -2.83 ± 0.13
GCGGAGCAAUAUUACGAAUU |  | -1.1 ± 0.33
AAAUAGCAAUAUUACGCUAA | -2.19 ± 0.21 | -1.52 ± 0.2
UUCCAGCAAUAUUACGCGUC | -1.59 ± 0.16 | -0.827 ± 0.18
CGAUAGCAAUAUUACGGUCU | -0.529 ± 0.072 | 0.511 ± 0.097
CAAGAGCAAUAUUACGGAUA | -2.87 ± 0.23 | -2.32 ± 0.29
CAGAAGCAAUAUUACGACUU | -0.506 ± 0.078 | 0.0901 ± 0.079
GUCUAGCAAUAUUACGAGUA | -1.19 ± 0.21 | -1.39 ± 0.22
CAUAAGCAAUAUUACGAGAU | -3.53 ± 0.15 | -3.51 ± 0.23
UCAUAGCAAUAUUACGACCG | -1.36 ± 0.16 | -0.325 ± 0.22
GGAUAGCAAUAUUACGGGCG | -1.69 ± 0.13 | -0.955 ± 0.094
UGUGAGCAAUAUUACGAGUC | -2.67 ± 0.27 | 
UAUUAGCAAUAUUACGACUU | -0.468 ± 0.13 | -0.537 ± 0.14
UAACAGCAAUAUUACGAUAA | -1.1 ± 0.076 | -0.209 ± 0.08
GUAAAGCAAUAUUACGCCCU | 0.35 ± 0.081 | 0.185 ± 0.081
CAAGAGCAAUAUUACGCGAA | -3.05 ± 0.26 | -2.98 ± 0.4
CGCUAGCAAUAUUACGAUGC | -4.31 ± 0.46 | -2.58 ± 0.36
CUGAAGCAAUAUUACGUUGC | -4.09 ± 0.26 | -0.264 ± 0.2
UGAGAGCAAUAUUACGUCUG | -2.76 ± 0.42 | -1.88 ± 0.33

Sequence | self-splicing fitness (ln) (30 °C) | self-splicing fitness (ln) (37 °C)
CAUUAGCAAUAUUACGCGGU | -2.75 ± 0.33 | -2.05 ± 0.42
CCCGAGCAAUAUUACGUUCU | -3.61 ± 0.25 | -2.1 ± 0.25
GUCAAGCAAUAUUACGUUUA | -1.92 ± 0.096 | -0.845 ± 0.091
UUCUAGCAAUAUUACGUCUU | -3.03 ± 0.29 | -2.26 ± 0.23
GCUCAGCAAUAUUACGUGAC | -1.88 ± 0.092 | -1.03 ± 0.11
AUCCAGCAAUAUUACGGUCG | -0.645 ± 0.058 | 0.12 ± 0.089
GUUAAGCAAUAUUACGGAGA | -3.29 ± 0.26 | -2.57 ± 0.25
CGAUAGCAAUAUUACGUAGU | -3.93 ± 0.18 | -1.06 ± 0.1
GAGUAGCAAUAUUACGCUAA | -1.92 ± 0.15 | -1.97 ± 0.2
UCCCAGCAAUAUUACGCUUA | -2.26 ± 0.14 | -0.458 ± 0.11
CCUGAGCAAUAUUACGGGCG | -2.62 ± 0.23 | -2.1 ± 0.18
UACCAGCAAUAUUACGCGCG | 0.11 ± 0.068 | 0.573 ± 0.09
GGAAAGCAAUAUUACGUCCC |  | -2.61 ± 0.33
UCGUAGCAAUAUUACGUCCG | -0.957 ± 0.074 | -0.517 ± 0.091
UGUCAGCAAUAUUACGCGGA | -2.91 ± 0.2 | -1.52 ± 0.15
AGCCAGCAAUAUUACGUAAG | -2.38 ± 0.057 | -1.34 ± 0.078
GGAAAGCAAUAUUACGGUCG | 0.127 ± 0.092 | -0.296 ± 0.12
AAUAAGCAAUAUUACGUGGC | -2.72 ± 0.22 | -2.82 ± 0.36
GGCAAGCAAUAUUACGGUCC | -2.95 ± 0.15 | -2.1 ± 0.17
GCUAAGCAAUAUUACGGCGA | -0.936 ± 0.1 | -0.247 ± 0.13
GAUAAGCAAUAUUACGUCAU | -2.38 ± 0.086 | -1.62 ± 0.095
UUAAAGCAAUAUUACGAAGU | -3.67 ± 0.44 | -2.47 ± 0.39
UUACAGCAAUAUUACGUUAC | -3.56 ± 0.28 | -3.03 ± 0.27
GAUAAGCAAUAUUACGGACG | -1.08 ± 0.13 | -0.201 ± 0.14
UGUUAGCAAUAUUACGGAUU | -2.53 ± 0.16 | -0.414 ± 0.13

Sequence | self-splicing fitness (ln) (30 °C) | self-splicing fitness (ln) (37 °C)
UUGCAGCAAUAUUACGAUGC | -3.16 ± 0.46 | -1.54 ± 0.45
GGUUAGCAAUAUUACGGUUC | -0.571 ± 0.086 | -0.114 ± 0.11
UGGUAGCAAUAUUACGCUUU | -1.85 ± 0.12 | -1.46 ± 0.12
GUGAAGCAAUAUUACGCCGC | -2.25 ± 0.16 | -1.5 ± 0.26
GGGAAGCAAUAUUACGUUUC | -3.58 ± 0.19 | -2.19 ± 0.29
ACUCAGCAAUAUUACGGAAG | -0.707 ± 0.088 | -0.89 ± 0.13
UGCAAGCAAUAUUACGCUGC | -3.62 ± 0.29 | -2.4 ± 0.3
UCGAAGCAAUAUUACGAUGU | -1.82 ± 0.067 | -0.546 ± 0.085
AACCAGCAAUAUUACGCGGC | -3.79 ± 0.2 | -3.14 ± 0.23
UCCGAGCAAUAUUACGACGC |  | -1.61 ± 0.42
CCGUAGCAAUAUUACGCUAG | -3.02 ± 0.28 | -2.14 ± 0.25
GGAUAGCAAUAUUACGUAGU | -3.21 ± 0.15 | -1.67 ± 0.15
UUGCAGCAAUAUUACGAUCA | -1.37 ± 0.12 | -0.0311 ± 0.11
UAGGAGCAAUAUUACGAACG | -0.534 ± 0.12 | -0.578 ± 0.19
GACUAGCAAUAUUACGAGGA | -2.29 ± 0.17 | -1.43 ± 0.14
UGCUAGCAAUAUUACGUUGG | -3.3 ± 0.19 | -2.49 ± 0.2
ACGGAGCAAUAUUACGCUAU | -3.81 ± 0.23 | -2.1 ± 0.19
AGCAAGCAAUAUUACGAUUU | -0.00633 ± 0.054 | 0.677 ± 0.08
CCGGAGCAAUAUUACGCAUU | -2.9 ± 0.39 | -1.81 ± 0.45
CUAUAGCAAUAUUACGCCUC | -3.66 ± 0.32 | -3.15 ± 0.37
AGAUAGCAAUAUUACGUUGG | -4.65 ± 0.46 | -2.57 ± 0.2
CGAAAGCAAUAUUACGCAAC | -2.4 ± 0.18 | -2.39 ± 0.35
CCAUAGCAAUAUUACGCGUG | -2.23 ± 0.095 | -0.856 ± 0.085
CGGCAGCAAUAUUACGCUCU | -2.11 ± 0.14 | -0.612 ± 0.16
UUGAAGCAAUAUUACGUAAG | -0.735 ± 0.083 | 0.223 ± 0.12

Sequence | self-splicing fitness (ln) (30 °C) | self-splicing fitness (ln) (37 °C)
CAACAGCAAUAUUACGAAGC | -3.45 ± 0.13 | -2.74 ± 0.15
GGCUAGCAAUAUUACGGACU | -0.601 ± 0.081 | 0.198 ± 0.098
AUGCAGCAAUAUUACGACGA | -0.531 ± 0.081 | -0.65 ± 0.089
CUAGAGCAAUAUUACGUUAC | -2.88 ± 0.27 | 
AGCAAGCAAUAUUACGGGAU | -2.79 ± 0.098 | -1.15 ± 0.081
GAUAAGCAAUAUUACGGGCU | -1.95 ± 0.11 | -1.91 ± 0.16
AUAUAGCAAUAUUACGUUUC | -2.54 ± 0.27 | -1.45 ± 0.3
UUAGAGCAAUAUUACGCGAG | -0.443 ± 0.084 | -0.0681 ± 0.094
CCCGAGCAAUAUUACGCCUA | -1.85 ± 0.25 | -2.94 ± 0.35
AGGUAGCAAUAUUACGGUCU | -0.498 ± 0.013 | -0.107 ± 0.033
UAGCAGCAAUAUUACGAGUA | -1.39 ± 0.14 | -0.225 ± 0.14
GGUAAGCAAUAUUACGCUCU | -3.29 ± 0.32 | -2.16 ± 0.35
UCCAAGCAAUAUUACGCUAU | -3.98 ± 0.47 | -2.26 ± 0.23
CGGCAGCAAUAUUACGCAAG | -1.93 ± 0.13 | -1.01 ± 0.16
UAGUAGCAAUAUUACGAUAG | -1.95 ± 0.35 | 
GCUUAGCAAUAUUACGCGGG | -3.43 ± 0.22 | -2.82 ± 0.32
GGUCAGCAAUAUUACGAGUG | -2.56 ± 0.1 | -1.44 ± 0.11
CGAAAGCAAUAUUACGCCUC |  | -1.53 ± 0.32
GACUAGCAAUAUUACGCAAG | -4.58 ± 0.36 | -1.6 ± 0.15
GCUUAGCAAUAUUACGUCUU | -1.1 ± 0.1 | -0.549 ± 0.12
ACGCAGCAAUAUUACGCCCG | -0.491 ± 0.13 | -0.64 ± 0.19
GACAAGCAAUAUUACGAUGG | -2.52 ± 0.1 | -2.14 ± 0.16
